In US20210188989A1 (SYSTIMMUNE, published 2021):
Changes are numbered by the printed parent chain.

B1: 411H11 VHv1VLv1 (antibody, human IgG1, kappa, V domains shown)
VH: EVQLVESGGGLVQPGGSLRLSCAASGFTISSHHMIWVRQAPGKGLQYIGFINDGDYTYYTNSAKGRFTISRDNSKNTLYLQMNSLRAEDTAVYYCARGVDGTSYPGLWGQGTLVTVSS
VL: DVVMTQSPSSVSASVGDRVTITCQASQSIGADLAWYQQKPGKAPKLLIYRASTLASGVPSRFSGSGSGTDFTLTISSLQPEDFATYYCQAIYYGTDDVIYHTFGGGTKVEIKR
notes: one of the humanized antibodies; also called 411H11 humanized
B2: 416G1 VHv1VLv1 (antibody, human IgG1, kappa, V domains shown)
VH: B1 VH with S30N, H32Y, Q46E, D55G, Y56F, T60A, N61S, G106D
VL: B1 VL with A31S, A90S, T95S
notes: one of the humanized antibodies; also called 416G1 humanized
B3: 413F3 VHv1VLv1 (antibody, human IgG1, kappa, V domains shown)
VH: EVQLVESGGGLVQPGGSLRLSCAASGIDFSSNYMCWVRQAPGKGLEWIACIYGDSSDNSYSASSAKGRFTISRDNSKNTLYLQMNSLRAEDTAVYYCARSGYSYLGYFNLWGQGTLVTVSS
VL: DIQMTQSPSSLSASVGDRVTITCQASQSIYSNLAWYQQKPGKVPKLLIYSTSTLASGVPSRFSGSGSGTDFTLTISSLQPEDVATYYCQNYYGSSTDSYGNPFGGGTKVEIKR
notes: one of the humanized antibodies; also called 413F3 humanized
B4: 416F8 VHv3VLv1 (antibody, human IgG1, kappa, V domains shown)
VH: QSLVESGGGLVQPGGSLRLSCAASGFSLSNYYMNWVRQAPGKGLEYIGIISSSGSAYYASSAKGRFTISRDNSKNTLYLQMNSLRAEDTAVYYCARGDYGMDLWGQGTLVTVSS
VL: DIQMTQSPSSLSASVGDRVTITCQSSQTVYNNNLLSWYQQKPGKVPKLLIYYASTLAFGVPSRFSGSGSGTDFTLTISSLQPEDVATYYCQGGYSGWIYVFGGGTKVEIKR
notes: one of the humanized antibodies; also called 416F8 humanized
B5: 418E10 VHv1VLv1 (antibody, human IgG1, kappa, V domains shown)
VH: EVQLVESGGGLVQPGGSLRLSCAASGFSLSTYYMSWVRQAPGKGLEWIGSIYDSGAAYYATSAKGRFTISRDNSKNTLYLQMNSLRAEDTAVYYCARDPINNAIWGQGTLVTVSS
VL: DIQMTQSPSTLSASVGDRVTITCQASQSIGSNLNWYQQKPGKAPKLLIYYVSTLASGVPSRFSGSGSGTEFTLTISSLQPDDFATYYCLGVWNYWGDDGTAFGGGTKVEIKR
notes: one of the humanized antibodies; also called 418E10 humanized
B6: 418E4 VHv1VLv1 (antibody, human IgG1, kappa, V domains shown)
VH: B5 VH with T31S, D53A, A56S, T61S, A103D
VL: B5 VL with G30A, S31T, V51T, T53S
notes: one of the humanized antibodies; also called 418E4 humanized
B7: 418H5 VHv2VLv1 (antibody, human IgG1, kappa, V domains shown)
VH: EVQLVESGGGLVQPGGSLRLSCTASGIDLSAYHMSWVRQAPGKGLEYIGMIGSSGTIHYANSAKGRFTISKDNTKNTVDLQMNSLRAEDTAVYYCARDSYNSDYAFNLWGQGTLVTVSS
VL: DIQMTQSPSSVSASVGDRVTITCQSSPSVYKNNQLAWYQQKPGKAPKLLIYLASTLASGVPSRFSGSGSGTDFTLTISSLQPEDFATYYCAGGYSSSSDTAFGGGTKVEIKR
notes: one of the humanized antibodies; also called 418H5 humanized
B8: 419D9 VHv3VLv3 (antibody, human IgG1, kappa, V domains shown)
VH: EVQLLESGGGLVQPGGSLRLSCTASGFSFSSRHYMCWVRQAPGKGLEWIACIYTGSSGTPHYASSAKGRFTISQDNSKNTVTLQMNSLRAEDTAVYYCAREGNLWGQGTLVTVSS
VL: DIQMTQSPSTLSASVGDRVTITCQSSQSVYSNWLSWYQQKPGKAPKRLIYSASTLASGVPSRFSGSGSGTEFTLTISSLQPDDFATYYCAGGYNTVTDTFAFGGGTKVEIKR
notes: one of the humanized antibodies; also called 419D9 humanized
B9: 420H5 VHv3VLv3 (antibody, human IgG1, kappa, V domains shown)
VH: QSLVESGGGLVQPGGSLRLSCAASGFSFSSNYWICWVRQAPGKGLEWIACIYVGSSGDTYYASSAKGRFTISRDNSKNTLYLQMNSLRAEDTAVYYCARDSSSYYMFNLWGQGTLVTVSS
VL: ALVMTQSPSTLSASVGDRVTINCQASEDIDTYLAWYQQKPGKAPKLLIFYASDLASGVPSRFSGSGSGTEFTLTISSLQPDDFATYYCQGGYYTSSADTRGAFGGGTKVEIKR
notes: one of the humanized antibodies; also called 420H5 humanized
B10: 470C6 VHv3VLv3 (antibody, human IgG1, kappa, V domains shown)
VH: B9 VH with S29T, N31S, W33Y, I34M, V53T, D58S, S63N
VL: B9 VL with T31N, A97T
notes: one of the humanized antibodies; also called 470C6 humanized
B11: 460C3 VHv1VLv1 (antibody, human IgG1, kappa, V domains shown)
VH: EVQLLESGGGLVQPGGSLRLSCAASGIDFSRRYYMCWVRQAPGKGLEWIACIYTGSRDTPHYASSAKGRFTISRDNSKNTLYLQMNSLRAEDTAVYYCAREGSLWGQGTLVTVSS
VL: B8 VL with L34F, R47L, T97I
notes: one of the humanized antibodies; also called 460C3 humanized
B12: 420H6 VHv1VLv1 (antibody, human IgG1, kappa, V domains shown)
VH: B11 VH with R31S, R32S, S56G, R57S, D58G
VL: B8 VL with S25A, R47L, T97I
notes: one of the humanized antibodies; also called 420H6 humanized
B13: 459F1 VHv1VLv1 (antibody, human IgG1, kappa, V domains shown)
VH: B11 VH with I52M, S103N
VL: B8 VL with L34F, R47L
notes: one of the humanized antibodies; also called 459F1 humanized
B14: 464C11 VHv1VLv1 (antibody, human IgG1, kappa, V domains shown)
VH: EVQLVESGGGLVQPGPSLRLSCTASGFSLSHYWMTWVRQAPGKGLEYIGFINVGGDTSYASSVKGRFTISRDDSKSIAYLQMNSLKTEDTAVYYCGRGGLTFGWDLWGQGTLVTVSS
VL: DIQMTQSPSTLSASVGDRVTITCQSSQSVYSNSFLSWYQQKPGKAPKLLIYSASDLASGVPSRFSGSGSGTEFTLTISSLQPDDFATYYCAGVYSDNTYVFGGGTKVEIKR
notes: one of the humanized antibodies; also called 464C11 humanized
B15: 466F6 VHv2VLv5 (antibody, human IgG1, kappa, V domains shown)
VH: RSLVESGGGLVQPGGSLRLSCTASGFTISSYHMQWVRQAPGKGLEYIGTISSGGNVYYASSARGRFTISRPSSKNTVDLQMNSLRAEDTAVYYCARDSGYSDPMWGQGTLVTVSS
VL: DVVMTQSPSSVSASVGDRVTITCQASQNIRTYLSWYQQKPGKAPKLLIYAAANLASGVPSRFSGSGSGTDFTLTISDLEPGDAATYYCQSTYLGTDYVGGAFGGGTKVEIKR
notes: one of the humanized antibodies; also called 466F6 humanized
B16: 472E4 VHv1VLv1 (antibody, human IgG1, kappa, V domains shown)
VH: EVQLVESGGGLVQPGGSLRLSCAASGFSLNNNAISWVRQAPGKGLEWVAIIQNTGTTDYARSAKGRFTISRDNSKNTLYLQMNSLRAEDTAVYYCARGYGFESELVIWGQGTLVTVSS
VL: DIQMTQSPSSLSASVGDRVTITCQSSQSVYNNNALAWYQQKPGKVPKLLIYLASTLASGVPSRFSGSGSGTDFTLTISSLQPEDVATYYCLGVYNDDVDNGFGGGTKVEIKR
notes: one of the humanized antibodies; also called 472E4 humanized

What follows are binders tested against T1, recombinant human 4-1BB extracellular domain protein (human, UniProt Q07011 24-186) (assay: Octet, binding off-rate kdis; the sheet names no species of 41BB, paragraph 86: 'binding to human and recombinant 4-1BB by octet assay').
T1 construct: extracellular domain; Analyte in the Octet assay; also called CD137; TNFRSF9

With B1 as the binder, how does the koff read?
Its koff is 0.00179 s⁻¹.

With B2 as the binder, how does the koff read?
Its koff is 0.00166 s⁻¹.

How did the koff turn out when B3 was run?
Its koff is 0.00224 s⁻¹.

With B4 as the binder, how does the koff read?
The koff was 0.00645 s⁻¹.

Which koff does the source give for B5 here?
The koff was 0.000958 s⁻¹.

With B6 as the binder, how does the koff read?
The koff was 0.00277 s⁻¹.

How did the koff turn out when B7 was run?
The koff was 0.00245 s⁻¹.

For B8, which koff is on record?
Its koff is 0.00284 s⁻¹.

B9 was tested. Which koff did it give?
Its koff is 0.00178 s⁻¹.

How did the koff turn out when B10 was run?
The koff was 0.00183 s⁻¹.

B11 was tested. Which koff did it give?
Its koff is 0.000728 s⁻¹.

B12 was tested. Which koff did it give?
Its koff is 0.00128 s⁻¹.

With B13 as the binder, how does the koff read?
The koff was 0.00131 s⁻¹.

For B14, which koff is on record?
Its koff is 0.000784 s⁻¹.

B15 was tested. Which koff did it give?
Its koff is 0.00254 s⁻¹.

B16 was tested. Which koff did it give?
Its koff is 0.00265 s⁻¹.
